Test results as given in patent US20130236458A1 (AbbVie / Abbott, published 2013).
Blank lines part the entries; values can stand above or below the binder they belong to.

Key:
Recombinant Human IL-13 [1] = target: T1, Recombinant Human IL-13 (human, UniProt P35225 35-146, limits assumed); test: SPR (Biacore)
T1 construct: bought reagent
Procedure, shortened: (§1)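 Antibodies or DVD-Ig captured on anti-mouse IgG (Fcγ) CM5 surface; antigen injected at 10–200 nM in HBS-EP, pH 7.4, 25 °C, 25 µL/min. kon and koff from global 1:1 Langmuir fit; KD = koff/kon.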

Recombinant Human IL-17 [2] = target: T2, Recombinant Human IL-17 (human, UniProt Q16552 20-155, limits assumed); test: SPR (Biacore)
T2 construct: bought reagent; also called IL-17A
T2 sequence (looked up): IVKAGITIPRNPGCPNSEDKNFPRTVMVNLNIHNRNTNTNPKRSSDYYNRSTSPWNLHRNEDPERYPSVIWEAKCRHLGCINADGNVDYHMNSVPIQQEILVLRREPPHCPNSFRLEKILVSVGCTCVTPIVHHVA
Procedure, shortened: as §1

Recombinant Human IL-13 [3] = target: T1, Recombinant Human IL-13; test: cell-based or functional assay
Recombinant Human IL-17 [4] = target: T2, Recombinant Human IL-17; test: cell-based or functional assay

T1 sequence (P35225 35-146 limits assumed): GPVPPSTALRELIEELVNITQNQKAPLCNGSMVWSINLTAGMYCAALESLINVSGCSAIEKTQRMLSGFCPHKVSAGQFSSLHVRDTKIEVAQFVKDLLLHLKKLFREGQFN

B1: DVD2172 (bispecific antibody)
VH: EVQLVQSGAEVKKPGASVKVSCKASGYTFTTYGVSWVRQAPGQGLEWMGEIYPGNYNTYYNEKFRGRVTMTTDTSTSTAYMELRSLRSDDTAVYYCARWRTSYFSDYGYFDYWGQGTTVTVSSASTKGPEVQLVQSGAEVKKPGSSVKVSCKASGGSFGGYGIGWVRQAPGQGLEWMGGITPFFGFADYAQKFQGRVTITADESTTTAYMELSGLTSDDTAVYYCARDPNEFWNGYYSTHDFDSWGQGTTVTVSS
VL: DVVMTQSPLSLPVTLGQPASISCRSSQSLVHSHGNTYLHWYQQRPGQSPRLLIYTVSNRFSGVPDRFSGSGSGTDFTLKISRVEAEDVGVYYCSQSTHVPYTFGGGTKVEIKRTVAAPEIVLTQSPDFQSVTPKEKVTITCRASQDIGSELHWYQQKPDQPPKLLIKYASHSTSGVPSRFSGSGSGTDFTLTINGLEAEDAGTYYCHQTDSLPYTFGPGTKVDIKR
notes: DVD-Ig; also called DVD2172H; DVD2172L
- Kd (Recombinant Human IL-13 [1]): 0.033 nM
- koff (Recombinant Human IL-13 [1]): 2.9e-05 s⁻¹
- kon (Recombinant Human IL-13 [1]): 890000 M⁻¹ s⁻¹
- Kd (Recombinant Human IL-17 [2]): 26 nM
- koff (Recombinant Human IL-17 [2]): 0.00017 s⁻¹
- kon (Recombinant Human IL-17 [2]): 6800 M⁻¹ s⁻¹
- N-Terminal VD IL13 Neutralization Assay IC50 (Recombinant Human IL-13 [3]): 0.111 nM
- C-Terminal VD IL17 Neutralization Assay IC50 (Recombinant Human IL-17 [4]): 0.678 nM

B3: DVD2166 (bispecific antibody)
VH: EVQLVQSGAEVKKPGASVKVSCKASGYTFTTYGVSWVRQAPGQGLEWMGEIYPGNYNTYYNEKFRGRVTMTTDTSTSTAYMELRSLRSDDTAVYYCARWRTSYFSDYGYFDYWGQGTTVTVSSASTKGPEVQLVQSGAEVKKPGSSVKVSCKASGYTFTDYEIHWVRQAPGQGLEWMGVNDPESGGTFYNQKFDGRVTLTADESTSTAYMELSSLRSEDTAVYYCTRYSKWDSFDGMDYWGQGTTVTVSS
VL: DVVMTQSPLSLPVTLGQPASISCRSSQSLVHSHGNTYLHWYQQRPGQSPRLLIYTVSNRFSGVPDRFSGSGSGTDFTLKISRVEAEDVGVYYCSQSTHVPYTFGGGTKVEIKRTVAAPDIQMTQSPSSLSASVGDRVTITCRASSGIISYIDWFQQKPGKAPKRLIYATFDLASGVPSRFSGSGSGTDYTLTISSLQPEDFATYYCRQVGSYPETFGQGTKLEIKR
notes: DVD-Ig; also called DVD2166H; DVD2166L
- Kd (Recombinant Human IL-13 [1]): 0.034 nM
- koff (Recombinant Human IL-13 [1]): 2.6e-05 s⁻¹
- kon (Recombinant Human IL-13 [1]): 760000 M⁻¹ s⁻¹
- Kd (Recombinant Human IL-17 [2]): 0.075 nM
- koff (Recombinant Human IL-17 [2]): 9.4e-06 s⁻¹
- kon (Recombinant Human IL-17 [2]): 130000 M⁻¹ s⁻¹
- N-Terminal VD IL13 Neutralization Assay IC50 (Recombinant Human IL-13 [3]): 0.089 nM
- C-Terminal VD IL17 Neutralization Assay IC50 (Recombinant Human IL-17 [4]): 0.0164 nM

B6: DVD2171 (bispecific antibody)
VH: EVQLVQSGAEVKKPGSSVKVSCKASGYTFTDYEIHWVRQAPGQGLEWMGVNDPESGGTFYNQKFDGRVTLTADESTSTAYMELSSLRSEDTAVYYCTRYSKWDSFDGMDYWGQGTTVTVSSASTKGPSVFPLAPEVQLVQSGAEVKKPGASVKVSCKASGYTFTTYGVSWVRQAPGQGLEWMGEIYPGNYNTYYNEKFRGRVTMTTDTSTSTAYMELRSLRSDDTAVYYCARWRTSYFSDYGYFDYWGQGTTVTVSS
VL: DIQMTQSPSSLSASVGDRVTITCRASSGIISYIDWFQQKPGKAPKRLIYATFDLASGVPSRFSGSGSGTDYTLTISSLQPEDFATYYCRQVGSYPETFGQGTKLEIKRTVAAPDVVMTQSPLSLPVTLGQPASISCRSSQSLVHSHGNTYLHWYQQRPGQSPRLLIYTVSNRFSGVPDRFSGSGSGTDFTLKISRVEAEDVGVYYCSQSTHVPYTFGGGTKVEIKR
notes: DVD-Ig; also called DVD2171H; DVD2171L
- Kd (Recombinant Human IL-13 [1]): < 0.005 nM
- koff (Recombinant Human IL-13 [1]): < 1e-06 s⁻¹
- kon (Recombinant Human IL-13 [1]): 200000 M⁻¹ s⁻¹
- Kd (Recombinant Human IL-17 [2]): 0.011 nM
- koff (Recombinant Human IL-17 [2]): 2.1e-05 s⁻¹
- kon (Recombinant Human IL-17 [2]): 1.9e+06 M⁻¹ s⁻¹
- C-Terminal VD IL13 Neutralization Assay IC50 (Recombinant Human IL-13 [3]): 0.506 nM
- N-Terminal VD IL17 Neutralization Assay IC50 (Recombinant Human IL-17 [4]): 0.0011 nM

Next, values leading:

- Kd (Recombinant Human IL-13 [1]): 0.036 nM
- koff (Recombinant Human IL-13 [1]): 2.8e-05 s⁻¹
- kon (Recombinant Human IL-13 [1]): 790000 M⁻¹ s⁻¹
- Kd (Recombinant Human IL-17 [2]): 0.098 nM
- koff (Recombinant Human IL-17 [2]): 1.8e-05 s⁻¹
- kon (Recombinant Human IL-17 [2]): 180000 M⁻¹ s⁻¹
- N-Terminal VD IL13 Neutralization Assay IC50 (Recombinant Human IL-13 [3]): 0.085 nM
- C-Terminal VD IL17 Neutralization Assay IC50 (Recombinant Human IL-17 [4]): 0.0126 nM
B2: DVD2174 (bispecific antibody)
VH: EVQLVQSGAEVKKPGASVKVSCKASGYTFTTYGVSWVRQAPGQGLEWMGEIYPGNYNTYYNEKFRGRVTMTTDTSTSTAYMELRSLRSDDTAVYYCARWRTSYFSDYGYFDYWGQGTTVTVSSASTKGPEVQLVQSGAEVKKPGSSVKVSCKASGGSFGGYGIGWVRQAPGQGLEWMGGITPFFGFADYAQKFQGRVTITADESTTTAYMELSGLTSDDTAVYYCARDPNEFWNGYYSTHDFDSWGQGTTVTVSS
VL: DVVMTQSPLSLPVTLGQPASISCRSSQSLVHSHGNTYLHWYQQRPGQSPRLLIYTVSNRFSGVPDRFSGSGSGTDFTLKISRVEAEDVGVYYCSQSTHVPYTFGGGTKVEIKRTVAAPSVFIFPPEIVLTQSPDFQSVTPKEKVTITCRASQDIGSELHWYQQKPDQPPKLLIKYASHSTSGVPSRFSGSGSGTDFTLTINGLEAEDAGTYYCHQTDSLPYTFGPGTKVDIKR
notes: DVD-Ig; also called DVD2174H; DVD2174L

- Kd (Recombinant Human IL-13 [1]): 0.054 nM
- koff (Recombinant Human IL-13 [1]): 3.7e-05 s⁻¹
- kon (Recombinant Human IL-13 [1]): 680000 M⁻¹ s⁻¹
- Kd (Recombinant Human IL-17 [2]): < 0.0025 nM
- koff (Recombinant Human IL-17 [2]): < 1e-06 s⁻¹
- kon (Recombinant Human IL-17 [2]): 400000 M⁻¹ s⁻¹
- N-Terminal VD IL13 Neutralization Assay IC50 (Recombinant Human IL-13 [3]): 0.119 nM
- C-Terminal VD IL17 Neutralization Assay IC50 (Recombinant Human IL-17 [4]): 0.0025 nM
B4: DVD2168 (bispecific antibody)
VH: EVQLVQSGAEVKKPGASVKVSCKASGYTFTTYGVSWVRQAPGQGLEWMGEIYPGNYNTYYNEKFRGRVTMTTDTSTSTAYMELRSLRSDDTAVYYCARWRTSYFSDYGYFDYWGQGTTVTVSSASTKGPEVQLVQSGAEVKKPGSSVKVSCKASGYTFTDYEIHWVRQAPGQGLEWMGVNDPESGGTFYNQKFDGRVTLTADESTSTAYMELSSLRSEDTAVYYCTRYSKWDSFDGMDYWGQGTTVTVSS
VL: DVVMTQSPLSLPVTLGQPASISCRSSQSLVHSHGNTYLHWYQQRPGQSPRLLIYTVSNRFSGVPDRFSGSGSGTDFTLKISRVEAEDVGVYYCSQSTHVPYTFGGGTKVEIKRTVAAPSVFIFPPDIQMTQSPSSLSASVGDRVTITCRASSGIISYIDWFQQKPGKAPKRLIYATFDLASGVPSRFSGSGSGTDYTLTISSLQPEDFATYYCRQVGSYPETFGQGTKLEIKR
notes: DVD-Ig; also called DVD2168H; DVD2168L

- Kd (Recombinant Human IL-13 [1]): < 0.048 nM
- koff (Recombinant Human IL-13 [1]): < 1e-06 s⁻¹
- kon (Recombinant Human IL-13 [1]): 21000 M⁻¹ s⁻¹
- Kd (Recombinant Human IL-17 [2]): < 0.00037 nM
- koff (Recombinant Human IL-17 [2]): < 1e-06 s⁻¹
- kon (Recombinant Human IL-17 [2]): 2.7e+06 M⁻¹ s⁻¹
- C-Terminal VD IL13 Neutralization Assay IC50 (Recombinant Human IL-13 [3]): 1.7 nM
- N-Terminal VD IL17 Neutralization Assay IC50 (Recombinant Human IL-17 [4]): 0.0029 nM
B5: DVD2167 (bispecific antibody)
VH: EVQLVQSGAEVKKPGSSVKVSCKASGYTFTDYEIHWVRQAPGQGLEWMGVNDPESGGTFYNQKFDGRVTLTADESTSTAYMELSSLRSEDTAVYYCTRYSKWDSFDGMDYWGQGTTVTVSSASTKGPEVQLVQSGAEVKKPGASVKVSCKASGYTFTTYGVSWVRQAPGQGLEWMGEIYPGNYNTYYNEKFRGRVTMTTDTSTSTAYMELRSLRSDDTAVYYCARWRTSYFSDYGYFDYWGQGTTVTVSS
VL: DIQMTQSPSSLSASVGDRVTITCRASSGIISYIDWFQQKPGKAPKRLIYATFDLASGVPSRFSGSGSGTDYTLTISSLQPEDFATYYCRQVGSYPETFGQGTKLEIKRTVAAPDVVMTQSPLSLPVTLGQPASISCRSSQSLVHSHGNTYLHWYQQRPGQSPRLLIYTVSNRFSGVPDRFSGSGSGTDFTLKISRVEAEDVGVYYCSQSTHVPYTFGGGTKVEIKR
notes: DVD-Ig; also called DVD2167H; DVD2167L

- Kd (Recombinant Human IL-13 [1]): 0.12 nM
- koff (Recombinant Human IL-13 [1]): 3.7e-05 s⁻¹
- kon (Recombinant Human IL-13 [1]): 310000 M⁻¹ s⁻¹
- Kd (Recombinant Human IL-17 [2]): 0.0036 nM
- koff (Recombinant Human IL-17 [2]): 9e-06 s⁻¹
- kon (Recombinant Human IL-17 [2]): 2.5e+06 M⁻¹ s⁻¹
- C-Terminal VD IL13 Neutralization Assay IC50 (Recombinant Human IL-13 [3]): 2.14 nM
- N-Terminal VD IL17 Neutralization Assay IC50 (Recombinant Human IL-17 [4]): 0.008 nM
B7: DVD2173 (bispecific antibody)
VH: EVQLVQSGAEVKKPGSSVKVSCKASGGSFGGYGIGWVRQAPGQGLEWMGGITPFFGFADYAQKFQGRVTITADESTTTAYMELSGLTSDDTAVYYCARDPNEFWNGYYSTHDFDSWGQGTTVTVSSASTKGPEVQLVQSGAEVKKPGASVKVSCKASGYTFTTYGVSWVRQAPGQGLEWMGEIYPGNYNTYYNEKFRGRVTMTTDTSTSTAYMELRSLRSDDTAVYYCARWRTSYFSDYGYFDYWGQGTTVTVSS
VL: EIVLTQSPDFQSVTPKEKVTITCRASQDIGSELHWYQQKPDQPPKLLIKYASHSTSGVPSRFSGSGSGTDFTLTINGLEAEDAGTYYCHQTDSLPYTFGPGTKVDIKRTVAAPDVVMTQSPLSLPVTLGQPASISCRSSQSLVHSHGNTYLHWYQQRPGQSPRLLIYTVSNRFSGVPDRFSGSGSGTDFTLKISRVEAEDVGVYYCSQSTHVPYTFGGGTKVEIKR
notes: DVD-Ig; also called DVD2173H; DVD2173L
